Source: patent US20090297524A1 (DOMANTIS, published 2009)

T1: Recombinant human CD40L (human, UniProt P29965 108-261, limits assumed)
T1 construct: also called CD40 ligand
T1 sequence (looked up): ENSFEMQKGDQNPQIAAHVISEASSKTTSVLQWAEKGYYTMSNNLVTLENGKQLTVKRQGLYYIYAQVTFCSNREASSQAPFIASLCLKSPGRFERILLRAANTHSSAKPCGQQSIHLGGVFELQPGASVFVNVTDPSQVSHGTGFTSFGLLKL


molecular target: T1, Recombinant human CD40L; experiment: CD40L receptor binding assay: inhibition of CD40L (3 ng/ml) binding to coated CD40/Fc; 40K PEG
Protocol: (§1) A 96 well Nunc Maxisorp assay plate was coated overnight at 4° C. with 100 μl per well of recombinant human CD40/Fc (R&D Systems) at 0.5 μg/ml in carbonate buffer. The plate was washed 3 times with 300 μl of 0.05% Tween/PBS and 3 times with 300 μl of PBS using a Tecan plate washer. The wells were blocked using 200 μl of PBS containing 2% (w/v) BSA and incubated for a minimum of 1 h at room temperature. The wells were washed as above, then 50 μl of purified dAb protein was added to each well. […] The plate was washed as described above, then 100 μl HRP conjugated anti-biotin antibody (1:5000 dilution in diluent) added to each well and the plate incubated for 1 hr at room temperature. The plate was washed again as described above using a Tecan plate washer and the assay developed using 100 μl of SureBlue 1-Component TMB MicroWell Peroxidase solution (the plate was left at room temperature for up to 20 min). The reaction was stopped by the addition of 100 μl M hydrochloric acid. The OD₄₅₀ₙₘ of the plate was assayed within 30 minutes of acid addition. The OD₄₅₀ₙₘ is proportional to the amount of bound streptavidin-HRP conjugate, therefore the greater the degree of dAb inhibition the lower the OD₄₅₀ₙₘ of the resulting signal.

| IC50 | Binder |
| --- | --- |
| ~1 nM | 40K PEG2-MAL PEGylated DOM8-24cys (other, 40K PEG2-MAL on the engineered C-terminal cysteine, PEGylated monomer; also called 40K PEG DOM8-24cys) VH: ASTEVQLLESGGGLVQPGGSLRLSCAASGFTFSNYQMAWVRQAPGKGLEWVSSITSEGGSTYYADSVKGRFTISRDNSKNTLYLQMNSLRAEDTAVYYCAKPGKNFDYWGQGTLVTVSC |

molecular target: T1, Recombinant human CD40L; experiment: CD40L receptor binding assay: inhibition of CD40L (3 ng/ml) binding to coated CD40/Fc; 30K PEG
Protocol: as §1

| IC50 | Binder |
| --- | --- |
| ~1 nM | 30K PEG-MAL PEGylated DOM8-24cys (other, 30K PEG-MAL on the engineered C-terminal cysteine, PEGylated monomer; also called 30K PEG DOM8-24cys) VH: ASTEVQLLESGGGLVQPGGSLRLSCAASGFTFSNYQMAWVRQAPGKGLEWVSSITSEGGSTYYADSVKGRFTISRDNSKNTLYLQMNSLRAEDTAVYYCAKPGKNFDYWGQGTLVTVSC |

molecular target: T1, Recombinant human CD40L; experiment: CD40L/CD40-Fc receptor binding assay;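 also: plate assay with coated human CD40-Fc, bound ligand detected via HRP anti-biotin antibody and TMB, OD at 450 nm, lower signal indicates stronger inhibition by dAb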
Protocol: (§2) A 96 well Nunc Maxisorp assay plate was coated overnight at 4° C. with 100 μl per well of recombinant human CD40/Fc (R&D Systems) at 0.5 μg/ml in carbonate buffer. The plate was washed 3 times with 300 μl of 0.05% Tween/PBS and 3 times with 300 μl of PBS using a Tecan plate washer. The wells were blocked using 200 μl of PBS containing 2% (w/v) BSA and incubated for a minimum of 1 h at room temperature. The wells were washed as above, then 50 μl of purified dAb protein (or unpurified supernatant containing dAb from a micro-culture expression) was added to each well.
(§3) The plate was washed as described above, then 100 μl HRP conjugated anti-biotin antibody (1:5000 dilution in diluent) added to each well and the plate incubated for 1 hr at room temperature. The plate was washed again as described above using a Tecan plate washer and the assay developed using 100 μl of SureBlue 1-Component TMB MicroWell Peroxidase solution (the plate was left at room temperature for up to 20 min). The reaction was stopped by the addition of 100 μl M hydrochloric acid. The OD₄₅₀ₙₘ of the plate was assayed within 30 minutes of acid addition. The OD₄₅₀ₙₘ is proportional to the amount of bound streptavidin-HRP conjugate, therefore the greater the degree of dAb inhibition the lower the OD₄₅₀ₙₘ of the resulting signal.

| binding result | Binder |
| --- | --- |
| binds | DOM-72 (other, VH dAb) VH: EVQLLESGGGLVQPGGSLRLSCAASGFTFEAYPMSWVRQAPGKGLEWVSSISPLGLWTYYADSVKGRFTISRDNSKNTLYLQMNSLRAEDTAVYYCAKLSAGAETHVYRLFDYWGQGTLVTVSS |
| binds | DOM-75 (other, VH dAb) VH: EVQLLESGGGLVQPGGSLRLSCAASGFTFLQYPMGWVRQAPGKGLEWVSTISPVGLTTYYADSVKGRFTISRDNSKNTLYLQMNSLRAEDTAVYYCAKLFEGSRIQRDVGFDYWGQGTLVTVSS |
| binds | DOM-85 (other, VH dAb) VH: EVQLLESGGGLVQPGGSLRLSCAASGFTFEQYDMRWVRQAPGKGLEWVSWIDEAGHETYYADSVKGRFTISRDNSRNTLYLQMNSLRAEDTAVYYCAKGMDGFDYWGQGTLVTVSS |
| binds | DOM.88 (other, Vk dAb) VL: DIQMTQSPSSLSASVGDRVTITCRASQEIVEDLYWYQQKPGKAAKLLIYGASWLQSGVPSRFSGSGSGTDFTLTISSLQPEDFATYYCQQTRRRPYTFGQGTKVEIKR |
| binds | DOM-70 (other, VH dAb) VH: EVQLLESGGGLVQPGGSLRLSCAASGFTFENYAMSWVRQAPGKGLEWVSTIAPLGVPTYYADSVKGRFTISRDNSKNTLYLQMNSLRAEDTAVYYCAKKKVGAWLQSRSFDYWGQGTLVTVSS |
| binds | DOM-71 (other, VH dAb) VH: EVQLLESGGGLVQPGGSLRLSCAASGFTFEGYPMSWVRQAPGKGLEWVSTISPLGPDTYYADSVKGRFTISRDNSKNTLYLQMNSLRAEDTAVYYCAKLLMGEYLNSRTFDYWGQGTLVTVSS |
| binds | DOM-87 (other, Vk dAb) VL: DIQMTQSPSSLSASVGDRVTITCRASQDIDESLMWYQQKPGKAPRLLIYGVSYLQSGVPSRFSGSGSGTDFTLTISSLQPEDFATYYCQQRWKAPFTFGQGTKVEIKR |
| binds | DOM-81 (other, VH dAb) VH: EVQLLESGGGLVQPGGFLRLSCAASGFTFELYPMAWVRQAPGKGLEWVSSISPVGFLTYYADSVKGRFTISRDNSKNTLYLQMNSLRAEDTAVYYCAKGHEGSYTPRSAFDYWGQGTLVTVSS |
| binds | DOM-82 (other, VH dAb) VH: EVQLLESGGGLVQPGGSLRLSCAASGFTFVAYPMAWVRQAPGKGLEWVSTIAPLGGNTYYADSVKGRFTISRDNSKNTLYLQMNSLRAEDTAVYYCAKRPEGLQIDSQNFDYWGQGTLVTVSS |

molecular target: T1, Recombinant human CD40L; experiment: CD40L receptor binding assay (RBA, ELISA): dAb titrated against 3 ng/ml CD40L binding to plate-coated CD40/Fc
Protocol: as §1

| IC50 (read off the curve) | Binder |
| --- | --- |
| ~0.6 nM | DOM8-24cys (other, VH dAb DOM8-24 with an engineered C-terminal cysteine (last Ser replaced by Cys); also called unmodified protein) VH: ASTEVQLLESGGGLVQPGGSLRLSCAASGFTFSNYQMAWVRQAPGKGLEWVSSITSEGGSTYYADSVKGRFTISRDNSKNTLYLQMNSLRAEDTAVYYCAKPGKNFDYWGQGTLVTVSC |
| ~0.5 nM | 30K PEG-MAL PEGylated DOM8-24cys (other, 30K PEG-MAL on the engineered C-terminal cysteine, PEGylated monomer; also called 30K PEG DOM8-24cys) VH: ASTEVQLLESGGGLVQPGGSLRLSCAASGFTFSNYQMAWVRQAPGKGLEWVSSITSEGGSTYYADSVKGRFTISRDNSKNTLYLQMNSLRAEDTAVYYCAKPGKNFDYWGQGTLVTVSC |
| ~1 nM | 40K PEG2-MAL PEGylated DOM8-24cys (other, 40K PEG2-MAL on the engineered C-terminal cysteine, PEGylated monomer; also called 40K PEG DOM8-24cys) VH: ASTEVQLLESGGGLVQPGGSLRLSCAASGFTFSNYQMAWVRQAPGKGLEWVSSITSEGGSTYYADSVKGRFTISRDNSKNTLYLQMNSLRAEDTAVYYCAKPGKNFDYWGQGTLVTVSC |

molecular target: T1, Recombinant human CD40L; experiment: CD40L receptor binding assay: dAb inhibits CD40L (3 ng/ml) binding to coated CD40/Fc
Protocol: as §2, §3

| Binder | IC50 |
| --- | --- |
| DOM-2 (other, VH dAb) VH: EVQLLESGGGLVQPGGSLRLSCAASGFTFSDYEMMWVRQAPGKGLEWVSTITSDGISTYYADSVKGRFTIFRDNSKNTLYLQMNSLRAEDTAVYYCAKSGRFFDYWGQGTLVTVSS | 800 nM |
| DOM-4 (other, VH dAb) VH: EVQLLESGGGLVQPGGSLRLSCAASGFTFDNYEMTWVRQAPGKGLEWVSSITSDGTSTYYADSVKGRFTISRDNSKNTLYLQMNSLRAEDTAVYYCAKPNPPFDYWGQGTLVTVSS | 100 nM |
| DOM-5 (other, VH dAb) VH: EVQLLESGGGLVQPGGSLRLSCAASGFTFDGYEMAWVRQAPGKGLEWVSSITSDGTSTYYADSVKGRFTISRDNSKNTLYLQMNSLRAEDTAVYYCAKPGLRFDYWGQGTLVTVSS | 3 nM |
| DOM-20 (other, VH dAb) VH: EVQLLESGGGLVQPGGSLRLSCAASGFTFSGYQMAWVRQAPGKGLEWVSGISSEGLTTYYADSVKGRFTISRDNSKNTLYLQMNSLRAEDTAVYYCAKLGRRFDYWGQGTLVTVSS | 8 nM |
| DOM-7 (other, VH dAb) VH: EVQLLESGGGLVQPGGSLRLSCAASGFTFNLYEMTWVRQAPGKGLEWVSSITSDGVSTYYADSVKGRFTISRDNSKNTLYLQMNSLRAEDTAVYYCAKAGVIFDYWGQGTLVTVSS | 1500 nM |
| DOM-24 (other, VH dAb; also called DOM8-24; monomeric DOM-24) VH: EVQLLESGGGLVQPGGSLRLSCAASGFTFSNYQMAWVRQAPGKGLEWVSSITSEGGSTYYADSVKGRFTISRDNSKNTLYLQMNSLRAEDTAVYYCAKPGKNFDYWGQGTLVTVSS | 0.417 nM |
| DOM-8 (other, Vk dAb) VL: DIQMTQSPSSLSASVGDRVTITCRASQFIDTSLEWYQQKPGKAPKLLIYDGSHLQSGVPSRFSGSGSGTDFTLTISSLQPEDLATYYCQQYWVLPLTFGQGTKVEIKR | 900 nM |
| DOM-10 (other, VH dAb) VH: EVQLLESGGGLVQPGGSLRLSCAASGFTFIAYDMSWVRQAPGKGLEWVSWIDEWGLQTYYADSVKGRFTISRDNSKNTLYLQMNSLRAEDTAVYYCAKKTPEEFDYWGQGTLVTVSS | 50 nM |

The remaining lines, values ahead:

| IC50 | Binder |
| --- | --- |
| 40 nM | DOM-77 (other, VH dAb) VH: EVQLLESGGGLVQPGGSLRLSCAASGFTFEEYGMAWVRQAPGKGLEWVSTISPLGISTYYADSVKGRFTISRDNSKNTLYLQMNSLRAEDTAVYYCAKHATSQESLRSFDYWGQGTLVTVSS |
| 8 nM | DOM-31 (other, VH dAb) VH: EVQLLESGGGLVQPGGSLRLSCAASGFTFEEYQMAWVRQAPGKGLEWVSTISDDGSSTYYADSVKGRFTISRDNSKNTLYLQMNSLRAEDTAVYYCAKPDLYFDYWGQGTLVTVSS |
| ~100 nM | DOM-27 (other, VH dAb) VH: EVQLLESGGGLVQPGGSLRLSCAASGFTFNLYEMTWVRQAPGKGLEWVSSITSDGVSTYYADSVKGRFTISRDNSKNTLYLQMNSLRAEDTAVYYCAKPDSPFDYWGQGTLVTVSS |
| 8 nM | DOM-30 (other, VH dAb) VH: EVQLLESGGGLVQPGGSLRLSCAASGFTFARYQMAWVRQAPGKGLEWVSTISDDGDSTYYADSVKGRFTISRDNSKNTLYLQMNSLRAEDTAVYYCAKLDKLFDYWGQGTLVTVSS |
